Experimental data reported in patent US20150276762A1 (NVH MEDICINAL, published 2015).

Tests used:
[1] = biological target: plasma von Willebrand factor of type 1 von Willebrand disease patients (human) (UniProt P04275); assay: ELISA, coated at 2 µg/ml, plasma of Patient 3 (Type 1)
[2] = biological target: plasma von Willebrand factor of type 1 von Willebrand disease patients (human) (UniProt P04275); assay: ELISA, coated at 2 µg/ml, plasma of Patient 4 (Type 1)
[3] = biological target: plasma von Willebrand factor of type 1 von Willebrand disease patients (human) (UniProt P04275); assay: ELISA, coated at 2 µg/ml, plasma of Patient 5 (Type 1)
[4] = biological target: plasma von Willebrand factor of type 2 von Willebrand disease patients (Table I) (human) (UniProt P04275); assay: ELISA, coated at 2 µg/ml, plasma of Patient 6 (Type 2)
[5] = biological target: plasma von Willebrand factor of type 2 von Willebrand disease patients (Table I) (human) (UniProt P04275); assay: ELISA, coated at 2 µg/ml, plasma of Patient 7 (Type 2)
[6] = biological target: plasma von Willebrand factor of type 2 von Willebrand disease patients (Table I) (human) (UniProt P04275); assay: ELISA, coated at 2 µg/ml, plasma of Patient 8 (Type 2)
[7] = biological target: plasma von Willebrand factor of type 1 von Willebrand disease patients (human) (UniProt P04275); assay: ELISA, coated at 2 µg/ml, plasma of Patient 3 (Type 1); collagen-binding activity over vWF antigen
[8] = biological target: plasma von Willebrand factor of type 1 von Willebrand disease patients (human) (UniProt P04275); assay: ELISA, coated at 2 µg/ml, plasma of Patient 4 (Type 1); collagen-binding activity over vWF antigen
[9] = biological target: plasma von Willebrand factor of type 1 von Willebrand disease patients (human) (UniProt P04275); assay: ELISA, coated at 2 µg/ml, plasma of Patient 5 (Type 1); collagen-binding activity over vWF antigen
[10] = biological target: plasma von Willebrand factor of type 2 von Willebrand disease patients (Table I) (human) (UniProt P04275); assay: ELISA, coated at 2 µg/ml, plasma of Patient 6 (Type 2); collagen-binding activity over vWF antigen
[11] = biological target: plasma von Willebrand factor of type 2 von Willebrand disease patients (Table I) (human) (UniProt P04275); assay: ELISA, coated at 2 µg/ml, plasma of Patient 7 (Type 2); collagen-binding activity over vWF antigen
[12] = biological target: plasma von Willebrand factor of type 2 von Willebrand disease patients (Table I) (human) (UniProt P04275); assay: ELISA, coated at 2 µg/ml, plasma of Patient 8 (Type 2); collagen-binding activity over vWF antigen
[13] = biological target: T1, plasma von Willebrand factor of healthy patients / control (reference) plasma (human, UniProt P04275 764-2813); assay: ELISA, coated at 2 µg/ml, plasma of Patient 1 (Normal); collagen-binding activity over vWF antigen
T1 construct: Unpurified, in diluted plasma; The read-out also depends on the amount of vWF in the plasma; also called Normal; Controls
Method: (§1) To that end, 100 μl of a solution containing the polypeptide at 2 or 10 μg/ml in phosphate buffer or any other suitable buffer is added in each well and incubated at 22° C. for 18 to 20 hours. After three washes with 200 μl of PBS-0.05% Tween, 200 μl of 1% BSA in phosphate buffer solution (Euromedex, 0.45 μm filter) is added in each well and incubated for 2 hours at room temperature (22° C.). After three washes with 200 μl of PBS-0.05% Tween, 100 μl of various concentrations (expressed in IU/dl) of purified von Willebrand factor (Wilfactin, 100 IU/ml, LFB) and/or of patient plasma diluted in phosphate buffer or any other suitable buffer is incubated for 1.5 hours at room temperature (22° C.). After three new washes, 100 μl of a solution containing a primary anti-vWF antibody coupled with horseradish peroxidase (rabbit anti-human vWF/HRP, DAKO) diluted to 1/8000 in phosphate buffer or any other suitable buffer is incubated for 1 hour at 22° C. and then washed 4 times as described above. 125 μl of tetramethylbenzidine solution (TMB, Sigma) as peroxidase substrate is added and then incubation is carried out in the dark for 10 to a maximum of 45 minutes. The reaction is quenched by adding 125 μl of 2 N HCl (Sigma). Absorbance is quickly measured at 450 nm in a spectrophotometer (Wallac Victor 3). […]

[14] = biological target: T1, plasma von Willebrand factor of healthy …; assay: ELISA, coated at 2 µg/ml, plasma of Patient 2 (Normal); collagen-binding activity over vWF antigen
Method: as §1

[15] = biological target: T2, plasma von Willebrand factor of a patient suspected of having anti-vWF antibody (mimicking type III) (human, UniProt P04275 764-2813, limits assumed); assay: ELISA, coated at 2 µg/ml, plasma of Patient 9 (vWF activity); collagen-binding activity over vWF antigen
T2 construct: Almost no vWF antigen in this plasma; also called Patient 9; vWF activity
Method: as §1

A Mean CB % [1] of 37%, a Mean CB % [2] of 24% and a Mean CB % [3] of 17% were found for “type III collagen (BD Biosciences), used as a reference (from UniProt P02461 154-1221)” in this work. For the same molecule, the Mean CB % [4] was 17%, the Mean CB % [5] was 19% and the Mean CB % [6] was 24%. It also gave a CB/Ag ratio [7] of 0.82, a CB/Ag ratio [8] of 1.41 and a CB/Ag ratio [9] of 0.77. For the same molecule, the CB/Ag ratio [10] was 0.74, the CB/Ag ratio [11] was 0.48 and the CB/Ag ratio [12] was 0.89.

B1: type III collagen (BD Biosciences), used as a reference (other, human, UniProt P02461 154-1221, looked up)
chain: QYDSYDVKSGVAVGGLAGYPGPAGPPGPPGPPGTSGHPGSPGSPGYQGPPGEPGQAGPSGPPGPPGAIGPSGPAGKDGESGRPGRPGERGLPGPPGIKGPAGIPGFPGMKGHRGFDGRNGEKGETGAPGLKGENGLPGENGAPGPMGPRGAPGERGRPGLPGAAGARGNDGARGSDGQPGPPGPPGTAGFPGSPGAKGEVGPAGSPGSNGAPGQRGEPGPQGHAGAQGPPGPPGINGSPGGKGEMGPAGIPGAPGLMGARGPPGPAGANGAPGLRGGAGEPGKNGAKGEPGPRGERGEAGIPGVPGAKGEDGKDGSPGEPGANGLPGAAGERGAPGFRGPAGPNGIPGEKGPAGERGAPGPAGPRGAAGEPGRDGVPGGPGMRGMPGSPGGPGSDGKPGPPGSQGESGRPGPPGPSGPRGQPGVMGFPGPKGNDGAPGKNGERGGPGGPGPQGPPGKNGETGPQGPPGPTGPGGDKGDTGPPGPQGLQGLPGTGGPPGENGKPGEPGPKGDAGAPGAPGGKGDAGAPGERGPPGLAGAPGLRGGAGPPGPEGGKGAAGPPGPPGAAGTPGLQGMPGERGGLGSPGPKGDKGEPGGPGADGVPGKDGPRGPTGPIGPPGPAGQPGDKGEGGAPGLPGIAGPRGSPGERGETGPPGPAGFPGAPGQNGEPGGKGERGAPGEKGEGGPPGVAGPPGGSGPAGPPGPQGVKGERGSPGGPGAAGFPGARGLPGPPGSNGNPGPPGPSGSPGKDGPPGPAGNTGAPGSPGVSGPKGDAGQPGEKGSPGAQGPPGAPGPLGIAGITGARGLAGPPGMPGPRGSPGPQGVKGESGKPGANGLSGERGPPGPQGLPGLAGTAGEPGRDGNPGSDGLPGRDGSPGGKGDRGENGSPGAPGAPGHPGPPGPVGPAGKSGDRGESGPAGPAGAPGPAGSRGAPGPQGPRGDKGETGERGAAGIKGHRGFPGNPGAPGSPGPAGQQGAIGSPGPAGPRGPVGPSGPPGKDGTSGHPGPIGPPGPRGNRGERGSEGSPGHPGQPGPPGPPGAPGPCCGGVGAAAIAGIGGEKAGGFAPYYG
notes: also called native type III collagen
A CB/Ag ratio [13] of 1.4, a CB/Ag ratio [14] of 1.22 and a CB/Ag ratio [15] of 0 were found for B1 in this work.
